B1: HDV Ribozyme (parent)
chain: GGCCGGCAUGGUCCCAGCCUCCUCGCUGGCGCCGGCUGGGCAACAUUCCGAGGGGACCGUCCCCUCGGUAAUGGCGAAUGGGACCCA

In this data set the parent is B1. Briefly: self-cleavage, relative activity (ratio to wild type); higher = more cleavage; co-transcriptional.
GGCCGGCAUGGUCGCAGCCUCCUCGCUGGCGCCGGCUGGGCAACAUUCCGAGGGGACCGUCCCCUCGGUAAUGGCGAAUGGGAACCA [C14G C84A]: the self-cleavage came to 0.519. The same measure for GGCCGGCAUGGUCGCAGCCUCCUCGCUGGCGCCAGCUGGGCAACAUUCCGAGGGGACCGUCCCCUCGGUAAUGGCGAAUGGGACCCA [C14G G34A]: 0. The same measure for GGCCGGCAUGGUCACAUCCUCCUCGCUGGCGCCGGCUGGGCAACAUUCCGAGGGGACCGUCCCCUCGGUAAUGGCGAAUGGGACCCA [C14A G17U]: 0.199; for GGCCGGCAUGGUCACAGCCUCCUCGCUGGCGCCGGCCGGGCAACAUUCCGAGGGGACCGUCCCCUCGGUAAUGGCGAAUGGGACCCA [C14A U37C]: 0.504; for GGCCGGCAUGGUCGCAGCCUCCUCGCUGGCGCCGGCUGGGCAACAUUCCGAGGGGACCGUCACCUCGGUAAUGGCGAAUGGGACCCA [C14G C62A]: 0.437.

As for GGCCGGCAUGGUCGCAGCCUCCUCGCUGGCGCCGGCUGGGCAACAUUCCGAGGGGACCGUCUCCUCGGUAAUGGCGAAUGGGACCCA [C14G C62U], the self-cleavage worked out at 0.554. For GGCCGGCAUGGUCACAGCCUCCUCGCUGGCUCCGGCUGGGCAACAUUCCGAGGGGACCGUCCCCUCGGUAAUGGCGAAUGGGACCCA [C14A G31U] the value was 0.148.

Regarding GGCCGGCAUGGUCACAGCCUCCUCGCUGGCACCGGCUGGGCAACAUUCCGAGGGGACCGUCCCCUCGGUAAUGGCGAAUGGGACCCA [C14A G31A], the self-cleavage is 0.121. For the variant GGCCGGCAUGGUCACAGCCUCCUCGCUGGCGCCGGCUGGGCAACAUUCCGAGGGGACCGUCCCCUCGGUAAUGGCGAAUGGUACCCA [C14A G82U], the self-cleavage is 0.665.

As to GGCCGGCAUGGUCGCAGCCUCCUCGCUGGCGCCGGCUGGGCAACAUUCCGAGGGGACCGUCCCCUCGGUAAUGGCGAAUGGGACUCA [C14G C85U], the self-cleavage was determined as 1.31. The same measure for GGCCGGCAUGGUCACAGCCUCCUCGCUGGCGCCGGCUGGGCAACAUUCCGAGGGGACCGUCCCCUCGGUAAUGGCGAAUGGGACACA [C14A C85A]: 0.623. On to GGCCGGCAUGGUCACAGCCUCCUCGCUGGCGCCGGCUGGGCAACAUUCCGAGUGGACCGUCCCCUCGGUAAUGGCGAAUGGGACCCA [C14A G53U], for which the self-cleavage stood at 0.848. For GGCCGGCAUGGUCACAGCCUCCUCGCUGGCGCCGGCUGGGCAACAUUCCGAGAGGACCGUCCCCUCGGUAAUGGCGAAUGGGACCCA [C14A G53A] the value was 0.499. The same measure for GGCCGGCAUGGUCACAGCCUCCUCGCUGGCGCCGGCUGGGCAACAUUCCGAGGGGACCAUCCCCUCGGUAAUGGCGAAUGGGACCCA [C14A G59A]: 0.762; for GGCCGGCAUGGUCGCAGCCUCCUCGCUGGCGCCGGCUGGGCAACAUUCCGAGGGGACCGUCCCCUUGGUAAUGGCGAAUGGGACCCA [C14G C66U]: 0.831; for GGCCGGCAUGGUCGCAGCCUCCUUGCUGGCGCCGGCUGGGCAACAUUCCGAGGGGACCGUCCCCUCGGUAAUGGCGAAUGGGACCCA [C14G C24U]: 0.403.

GGCCGGCAUGGUCACAGCCUCCACGCUGGCGCCGGCUGGGCAACAUUCCGAGGGGACCGUCCCCUCGGUAAUGGCGAAUGGGACCCA [C14A U23A]: the self-cleavage was 0.575.

For the variant GGCCGGCAUGGUCGCAGCCUCCUCGCUGGCCCCGGCUGGGCAACAUUCCGAGGGGACCGUCCCCUCGGUAAUGGCGAAUGGGACCCA [C14G G31C], the self-cleavage turned out to be 0.145. For GGCCGGCAUGGUCACAGCCUCCUCGCUGGCGCCGGCUGGGCAACAUUCCGAGGGGACCGUCCCCUCGAUAAUGGCGAAUGGGACCCA [C14A G68A] the value was 0.811. With GGCCGGCAUGGUCGCAGCCUCCUCGCUGGCGUCGGCUGGGCAACAUUCCGAGGGGACCGUCCCCUCGGUAAUGGCGAAUGGGACCCA [C14G C32U], the self-cleavage was determined as 0.196. The same measure for GGCCGGCAUGGUCGCAACCUCCUCGCUGGCGCCGGCUGGGCAACAUUCCGAGGGGACCGUCCCCUCGGUAAUGGCGAAUGGGACCCA [C14G G17A]: 0.123; for GGCCGGCAUGGUCACAGCCUCCUCGCUGGCGCCGGCUGGGCAACAUUCCAAGGGGACCGUCCCCUCGGUAAUGGCGAAUGGGACCCA [C14A G50A]: 0.736. For GGCCGGCAUGGUCACAGCCUCCUCGCUGGCGCCGGCUGGGCAACAUUCCCAGGGGACCGUCCCCUCGGUAAUGGCGAAUGGGACCCA [C14A G50C] the value was 0.639; for GGCCGGCAUGGUCACAGCCUCCUCGCUGCCGCCGGCUGGGCAACAUUCCGAGGGGACCGUCCCCUCGGUAAUGGCGAAUGGGACCCA [C14A G29C], 0.0302.

GGCCGGCAUGGUCACAGCCUCCUCGCUGACGCCGGCUGGGCAACAUUCCGAGGGGACCGUCCCCUCGGUAAUGGCGAAUGGGACCCA [C14A G29A]: the self-cleavage came out at 0.115. For the variant GGCCGGCAUGGUCGCAGCCUCCUCGCUGUCGCCGGCUGGGCAACAUUCCGAGGGGACCGUCCCCUCGGUAAUGGCGAAUGGGACCCA [C14G G29U], the self-cleavage was determined as 0.0396. With GGCCGGCAUGGUCGCAGCCUCCUCGCUGCCGCCGGCUGGGCAACAUUCCGAGGGGACCGUCCCCUCGGUAAUGGCGAAUGGGACCCA [C14G G29C], the self-cleavage came to 0.0665. The same measure for GGCCGGCAUGGUCGCAGCCUCUUCGCUGGCGCCGGCUGGGCAACAUUCCGAGGGGACCGUCCCCUCGGUAAUGGCGAAUGGGACCCA [C14G C22U]: 0.306; for GGCCGGCAUGGUCGCAGCCUCCUCGCUGGCGCCGGCUGGGCAACAUUCCGUGGGGACCGUCCCCUCGGUAAUGGCGAAUGGGACCCA [C14G A51U]: 0.791. The same measure for GGCCGGCAUGGUCGCAGCCUCCUCGCUGGCGCCGGCUGGGCAACAUUCCGAGGGGACCGUCCACUCGGUAAUGGCGAAUGGGACCCA [C14G C63A]: 0.755; for GGCCGGCAUGGUCGCAGCCUCCUCGCUGGCGCCGGCUGGGCAAAAUUCCGAGGGGACCGUCCCCUCGGUAAUGGCGAAUGGGACCCA [C14G C44A]: 0.128; for GGCCGGCAUGGUCGCAGCCUCCUCGCUGGCGCCGGCUGGGCAACAUUCCGAGGGGACGGUCCCCUCGGUAAUGGCGAAUGGGACCCA [C14G C58G]: 0.712.

Values taken from the RNAGym collection of RNA variant scans (doi:10.7554/elife.80360).
